Results: patent publication US20190233493A1 (Sanofi, published 2019)
*1 amine or outer side, *2 acyl side, *3 side chain or, on linkers, in order; H or OH if unused. Primed or numbered codes have the meaning given here. Side-chain parts run from the residue outwards. [ ]: non-standard residue; d: D form. The star is where a group is joined. γGlu = O=C(O)[C@H](CCC(=O)[*:2])N[*:1]; Stearoyl = CCCCCCCCCCCCCCCCCC(=O)*; Palmitoyl = CCCCCCCCCCCCCCCC(=O)*; Nle = CCCC[C@H](N)C(=O)O; PEG2′ = PEG2 spacer unit; PEG2″ = not defined here; Aib = CC(C)(N)C(=O)O

T1: RXFP1 receptor (UniProt Q9HBX9 1-757, limits assumed)
T1 sequence (looked up): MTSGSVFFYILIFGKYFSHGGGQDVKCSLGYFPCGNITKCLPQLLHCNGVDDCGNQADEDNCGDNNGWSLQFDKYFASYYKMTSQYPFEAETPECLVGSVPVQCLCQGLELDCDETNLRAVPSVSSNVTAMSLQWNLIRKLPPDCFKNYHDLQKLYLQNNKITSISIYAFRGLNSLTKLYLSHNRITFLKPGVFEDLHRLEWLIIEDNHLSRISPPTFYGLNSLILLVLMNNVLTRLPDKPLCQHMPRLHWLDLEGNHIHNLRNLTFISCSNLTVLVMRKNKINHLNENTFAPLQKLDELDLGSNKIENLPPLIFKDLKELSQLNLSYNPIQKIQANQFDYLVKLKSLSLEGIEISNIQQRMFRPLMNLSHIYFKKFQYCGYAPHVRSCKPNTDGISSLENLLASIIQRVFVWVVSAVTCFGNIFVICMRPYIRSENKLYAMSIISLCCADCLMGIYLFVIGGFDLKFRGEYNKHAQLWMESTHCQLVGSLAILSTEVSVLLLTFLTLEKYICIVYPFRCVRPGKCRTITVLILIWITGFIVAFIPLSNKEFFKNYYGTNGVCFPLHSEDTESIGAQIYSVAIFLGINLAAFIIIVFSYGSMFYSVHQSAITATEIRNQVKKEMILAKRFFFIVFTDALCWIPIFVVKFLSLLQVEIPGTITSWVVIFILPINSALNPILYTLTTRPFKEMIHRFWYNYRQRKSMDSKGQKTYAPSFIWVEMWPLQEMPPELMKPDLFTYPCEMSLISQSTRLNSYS


Target: T1, RXFP1 receptor
Assay: cell-based or functional assay

| Binder | EC50 (nM), OVCAR 5 cells (cAMP) | EMax, OVCAR 5 cells (cAMP) |
| --- | --- | --- |
| Ac-ELEGREKVRAAI[Aib][Aib]EG[Nle]STWS[Aib]RKK([PEG2′-PEG2′-γGlu-γGlu-Palmitoyl])-NH2 [peptide of SEQ ID NO: 57] | 4.4 nM | 93% |
| Ac-LEGREKVRAQI[Aib][Aib]EG[Nle]STWS[Aib]RKKK([PEG2′-PEG2′-γGlu-Stearoyl])-NH2 [peptide of SEQ ID NO: 56] | 0.51 nM | 95% |
| Ac-LEGREKVRAK(Ac)I[Aib][Aib]EG[Nle]STWS[Aib]RKK([PEG2′-PEG2′-γGlu-γGlu-γGlu-Palmitoyl])-NH2 [peptide of SEQ ID NO: 59] | 28.2 nM | 85% |
| Ac-LEGREKVRAQI[Aib][Aib]EGMSTWS[Aib]RK([γGlu-γGlu-Palmitoyl])-NH2 (SMILES CCCCCCCCCCCCCCCC(=O)N[C@@H](CCC(=O)N[C@@H](CCC(=O)NCCCC[C@H](NC(=O)[C@H](CCCNC(=N)N)NC(=O)C(C)(C)NC(=O)[C@H](CO)NC(=O)[C@H](Cc1c[nH]c2ccccc12)NC(=O)[C@@H](NC(=O)[C@H](CO)NC(=O)[C@H](CCSC)NC(=O)CNC(=O)[C@H](CCC(=O)O)NC(=O)C(C)(C)NC(=O)C(C)(C)NC(=O)[C@@H](NC(=O)[C@H](CCC(N)=O)NC(=O)[C@H](C)NC(=O)[C@H](CCCNC(=N)N)NC(=O)[C@@H](NC(=O)[C@H](CCCCN)NC(=O)[C@H](CCC(=O)O)NC(=O)[C@H](CCCNC(=N)N)NC(=O)CNC(=O)[C@H](CCC(=O)O)NC(=O)[C@H](CC(C)C)NC(C)=O)C(C)C)[C@@H](C)CC)[C@@H](C)O)C(N)=O)C(=O)O)C(=O)O) [peptide of SEQ ID NO: 5] | 86.8 nM | 105% |
| Ac-ELEGREKVRAAI[Aib][Aib]EG[Nle]STWS[Aib]RKK([PEG2′-γGlu-γGlu-Palmitoyl])-NH2 [peptide of SEQ ID NO: 54] | 18.6 nM | 98% |
| Ac-LEGREKVRAQI[Aib][Aib]EG[Nle]STWS[Aib]RKK([PEG2′-Palmitoyl])-NH2 [peptide of SEQ ID NO: 50] | 75.9 nM | 95% |
| Ac-LEGREKVRAQI[Aib][Aib]EG[Nle]STWS[Aib]RKK([PEG2′-γGlu-γGlu-γGlu-Palmitoyl])-NH2 [peptide of SEQ ID NO: 55] | 19.3 nM | 94% |
| Ac-LEGREKVRAQI[Aib][Aib]EG[Nle]STWS[Aib]RKK(Ac)K([PEG2′-PEG2′-PEG2′-Stearoyl])-NH2 [peptide of SEQ ID NO: 52] | 56 nM | 98% |
| Ac-LEGREKVRAK(Ac)I[Aib][Aib]EG[Nle]STWS[Aib]RKK(Ac)K([PEG2″-PEG2″-PEG2″-PEG2″-γGlu-γGlu-γGlu-Palmitoyl])-NH2 [peptide of SEQ ID NO: 64] | 0.2 nM | 81% |
| Ac-LEGREKVRAK(Ac)I[Aib][Aib]EG[Nle]STWS[Aib]RKK(Ac)K([PEG2′-PEG2′-PEG2′-γGlu-γGlu-γGlu-Palmitoyl])-NH2 [peptide of SEQ ID NO: 63] | 0.84 nM | 80% |
| Ac-LEGREKVRAK(Ac)I[Aib][Aib]EG[Nle]STWS[Aib]RKKK([PEG2′-PEG2′-γGlu-γGlu-γGlu-Palmitoyl])-NH2 [peptide of SEQ ID NO: 60] | 0.11 nM | 91% |
| Ac-ELEGREKVRAAI[Aib][Aib]EG[Nle]STWS[Aib]RKKK([γGlu-γGlu-γGlu-Palmitoyl])-NH2 (SMILES CCCCCCCCCCCCCCCC(=O)N[C@@H](CCC(=O)N[C@@H](CCC(=O)N[C@@H](CCC(=O)NCCCC[C@H](NC(=O)[C@H](CCCCN)NC(=O)[C@H](CCCCN)NC(=O)[C@H](CCCNC(=N)N)NC(=O)C(C)(C)NC(=O)[C@H](CO)NC(=O)[C@H](Cc1c[nH]c2ccccc12)NC(=O)[C@@H](NC(=O)[C@H](CO)NC(=O)[C@H](CCCC)NC(=O)CNC(=O)[C@H](CCC(=O)O)NC(=O)C(C)(C)NC(=O)C(C)(C)NC(=O)[C@@H](NC(=O)[C@H](C)NC(=O)[C@H](C)NC(=O)[C@H](CCCNC(=N)N)NC(=O)[C@@H](NC(=O)[C@H](CCCCN)NC(=O)[C@H](CCC(=O)O)NC(=O)[C@H](CCCNC(=N)N)NC(=O)CNC(=O)[C@H](CCC(=O)O)NC(=O)[C@H](CC(C)C)NC(=O)[C@H](CCC(=O)O)NC(C)=O)C(C)C)[C@@H](C)CC)[C@@H](C)O)C(N)=O)C(=O)O)C(=O)O)C(=O)O) [peptide of SEQ ID NO: 6] | 18 nM | 100% |
| Ac-LEGREKVRAQI[Aib][Aib]EG[Nle]STWS[Aib]RKK([PEG2′-PEG2′-γGlu-γGlu-γGlu-Palmitoyl])-NH2 [peptide of SEQ ID NO: 58] | 14.8 nM | 83% |
| Ac-LEGREKVRAK(Ac)I[Aib][Aib]EGK(Ac)STWS[Aib]RKKK([PEG2′-PEG2′-γGlu-γGlu-γGlu-Palmitoyl])-NH2 [peptide of SEQ ID NO: 61] | 0.17 nM | 93% |
| Ac-LEGREKVRAK(Ac)I[Aib][Aib]EG[Nle]STWS[Aib]RKK(Ac)K([PEG2′-PEG2′-γGlu-γGlu-γGlu-Palmitoyl])-NH2 [peptide of SEQ ID NO: 62] | 1.14 nM | 87% |
| Ac-LEGREKVRAAI[Aib][Aib]EG[Nle]STWS[Aib]RKK(Palmitoyl)-NH2 (SMILES CCCCCCCCCCCCCCCC(=O)NCCCC[C@H](NC(=O)[C@H](CCCCN)NC(=O)[C@H](CCCNC(=N)N)NC(=O)C(C)(C)NC(=O)[C@H](CO)NC(=O)[C@H](Cc1c[nH]c2ccccc12)NC(=O)[C@@H](NC(=O)[C@H](CO)NC(=O)[C@H](CCCC)NC(=O)CNC(=O)[C@H](CCC(=O)O)NC(=O)C(C)(C)NC(=O)C(C)(C)NC(=O)[C@@H](NC(=O)[C@H](C)NC(=O)[C@H](C)NC(=O)[C@H](CCCNC(=N)N)NC(=O)[C@@H](NC(=O)[C@H](CCCCN)NC(=O)[C@H](CCC(=O)O)NC(=O)[C@H](CCCNC(=N)N)NC(=O)CNC(=O)[C@H](CCC(=O)O)NC(=O)[C@H](CC(C)C)NC(C)=O)C(C)C)[C@@H](C)CC)[C@@H](C)O)C(N)=O) [peptide of SEQ ID NO: 1] | 85.3 nM | 85% |
| Ac-LEGREKVRAQI[Aib][Aib]EG[Nle]STWS[Aib]RKK([PEG2′-γGlu-Palmitoyl])-NH2 [peptide of SEQ ID NO: 53] | 15.3 nM | 97% |
| Ac-LEGREKVRAQI[Aib][Aib]EG[Nle]STWS[Aib]RKK(Ac)K([PEG2′-PEG2′-Stearoyl])-NH2 [peptide of SEQ ID NO: 51] | 71.2 nM | 100% |
